Measured values as given in patent US20240360223A1 (DRAGONFLY THERAPEUTICS, published 2024).
Where “and” joins values, the source holds several entries; their conditions need not be identical. Equal values may be shown once. Read-outs that look alike come from different tables or passages of the source.

Tests used:
human CD16a V158 [1] = target: T1, human CD16a V158 (human, UniProt P08637 17-208); experiment: SPR, average
T1 construct: also called hCD16aV; hCD16a V158

[2] = target: T2, cynomolgus NKG2D (recombinant mFc-tagged dimer) (cynomolgus, UniProt P61252 78-216); experiment: SPR, steady state fit, average
T2 construct: also called cyno NKG2D
T2 sequence (looked up): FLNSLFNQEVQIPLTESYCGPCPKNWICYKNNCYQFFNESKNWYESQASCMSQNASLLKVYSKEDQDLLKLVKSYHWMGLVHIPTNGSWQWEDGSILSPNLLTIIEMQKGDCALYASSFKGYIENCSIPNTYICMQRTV
Excerpt: (§1) Two different fits were utilized to obtain the equilibrium affinity data: steady state affinity fit and kinetic fit.

cynomolgus FcRn [3] = target: T3, cynomolgus FcRn (cynomolgus, UniProt Q8SPV9 24-297; Q8SPW0 21-119); experiment: SPR, pH 6.0, steady state; pH 6.0; first replicate
T3 construct: also called Cyno FcRn

human CD16a V158 [4] = target: T1, human CD16a V158; experiment: SPR, after 4 weeks at 40 °C
[5] = target: T4, human NKG2D (recombinant mFc-tagged dimer) (human, UniProt P26718 78-216); experiment: SPR, after 4 weeks at 40 °C
T4 construct: also called hNKG2D
T4 sequence (looked up): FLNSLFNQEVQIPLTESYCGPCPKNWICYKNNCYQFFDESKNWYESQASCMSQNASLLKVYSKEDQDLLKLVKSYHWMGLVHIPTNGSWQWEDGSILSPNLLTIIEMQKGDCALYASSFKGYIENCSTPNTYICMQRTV

human CD16a F158 = human CD16a F158 (human, UniProt P08637 17-208); experiment: SPR, steady state
cynomolgus FcRn [6] = target: T3, cynomolgus FcRn; experiment: SPR, pH 6.0, steady state; pH 6.0; fourth replicate
cynomolgus CD16 [7] = target: T5, cynomolgus CD16 (cynomolgus, UniProt Q8SPW2 17-208, limits assumed); experiment: SPR
T5 construct: also called Cyno CD16; cynomolgus FcγRIII

[8] = target: T6, human BAFF-R expressed on cells (human, UniProt Q96RJ3 1-184); experiment: flow cytometry, BJAB cells, control
T6 construct: Cell surface BAFF-R, endogenous on B cell lines and primary B cells or overexpressed on isogenic CHO cells; also called hBAFF-R; hBAFF-R-CHO

[9] = target: T2, cynomolgus NKG2D (recombinant …); experiment: SPR, steady state fit
Excerpt: (§2) NKG2D is a native dimer, therefore recombinant mFc-tagged NKG2D dimer was used for this experiment. Two different fits were utilized to obtain the equilibrium affinity data: steady state affinity fit and kinetic fit.

[10] = target: T4, human NKG2D (recombinant mFc-tagged …); experiment: SPR, steady state fit
Excerpt: as §2

[11] = target: T6, human BAFF-R expressed on cells; experiment: flow cytometry, Jeko-1 cells
human CD16a V158 [12] = target: T1, human CD16a V158; experiment: SPR, kinetic fit
cynomolgus CD16 [13] = target: T5, cynomolgus CD16; experiment: SPR, average
human CD32a R131 [14] = target: T7, human CD32a R131 (human, UniProt P12318 36-218, limits assumed); experiment: SPR, steady state
T7 construct: also called FcγRIIa R131
T7 sequence (looked up): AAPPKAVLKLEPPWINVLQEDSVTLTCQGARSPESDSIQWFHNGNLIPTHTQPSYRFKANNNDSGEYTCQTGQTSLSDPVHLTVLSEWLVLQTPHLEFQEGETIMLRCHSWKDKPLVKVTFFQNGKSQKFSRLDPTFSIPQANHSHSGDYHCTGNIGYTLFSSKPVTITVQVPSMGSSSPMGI

human CD32a R131 [15] = target: T7, human CD32a R131; experiment: SPR, steady state, average
[16] = target: T4, human NKG2D (recombinant mFc-tagged …); experiment: SPR, kinetic fit, after 4 weeks at 40 °C
[17] = target: T4, human NKG2D (recombinant mFc-tagged …); experiment: SPR
Excerpt: as §2

[18] = target: T6, human BAFF-R expressed on cells; experiment: flow cytometry, BJAB cells, after 4 weeks at 40 °C
[19] = target: T6, human BAFF-R expressed on cells; experiment: flow cytometry, CHO-hBAFF-R cells
[20] = target: T4, human NKG2D (recombinant mFc-tagged …); experiment: SPR, high concentration sample, control
[21] = target: T6, human BAFF-R expressed on cells; experiment: flow cytometry, BJAB cells
[22] = target: T2, cynomolgus NKG2D (recombinant …); experiment: SPR, average
Excerpt: as §1

[23] = target: T2, cynomolgus NKG2D (recombinant …); experiment: SPR, average; remark: listed apart in the source
[24] = target: T4, human NKG2D (recombinant mFc-tagged …); experiment: SPR, steady state, after 4 weeks at 40 °C

Sequence of human CD16a F158 (P08637 17-208 limits assumed): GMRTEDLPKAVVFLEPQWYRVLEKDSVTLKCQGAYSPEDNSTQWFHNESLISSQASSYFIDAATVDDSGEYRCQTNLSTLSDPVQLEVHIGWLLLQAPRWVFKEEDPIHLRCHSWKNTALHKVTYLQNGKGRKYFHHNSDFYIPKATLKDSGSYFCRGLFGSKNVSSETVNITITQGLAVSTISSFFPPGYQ
T5 sequence (Q8SPW2 17-208 limits assumed): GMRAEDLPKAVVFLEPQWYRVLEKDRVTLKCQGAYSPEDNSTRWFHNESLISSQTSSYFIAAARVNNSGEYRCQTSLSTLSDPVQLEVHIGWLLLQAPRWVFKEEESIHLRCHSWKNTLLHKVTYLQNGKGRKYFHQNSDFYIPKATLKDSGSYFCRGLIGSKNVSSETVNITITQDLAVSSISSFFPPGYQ
T1 sequence (P08637 17-208 F176V limits assumed): as the sequence (P08637 17-208 limits assumed) above, with F160V counted along it
T3 sequence (Q8SPV9 24-297 limits assumed, chain 1 of 2): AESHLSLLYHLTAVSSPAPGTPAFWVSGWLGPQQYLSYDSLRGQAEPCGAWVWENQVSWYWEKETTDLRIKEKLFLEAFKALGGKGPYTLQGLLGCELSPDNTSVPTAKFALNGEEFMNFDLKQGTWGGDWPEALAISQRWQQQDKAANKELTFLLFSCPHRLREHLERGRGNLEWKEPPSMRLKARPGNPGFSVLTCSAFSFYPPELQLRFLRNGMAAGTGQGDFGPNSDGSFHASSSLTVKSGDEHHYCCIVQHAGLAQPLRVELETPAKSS
T3 sequence (Q8SPW0 21-119 limits assumed, chain 2 of 2): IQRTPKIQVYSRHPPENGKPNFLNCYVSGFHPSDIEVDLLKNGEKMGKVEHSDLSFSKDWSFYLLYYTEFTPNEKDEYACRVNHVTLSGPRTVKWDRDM

koff (human CD16a V158 [1]): 0.014 s⁻¹
kon (human CD16a V158 [1]): 110000 M⁻¹ s⁻¹
Kd [2]: 0.609 µM
Kd (cynomolgus FcRn [3]): 1 µM
Kd (human CD16a V158 [4]): 0.145 µM
koff (human CD16a V158 [4]): 0.016 s⁻¹
kon (human CD16a V158 [4]): 120000 M⁻¹ s⁻¹
koff [5]: 0.1 s⁻¹
kon [5]: 210000 M⁻¹ s⁻¹
Kd (human CD16a F158): 1.33 µM and 1.26 µM and 1.37 µM and 1.43 µM
Kd (cynomolgus FcRn [6]): 1 µM
Kd (cynomolgus CD16 [7]): 0.261 µM and 0.269 µM and 0.283 µM and 0.26 µM
koff (cynomolgus CD16 [7]): 0.02 s⁻¹ and 0.021 s⁻¹
kon (cynomolgus CD16 [7]): 78000 M⁻¹ s⁻¹ and 72000 M⁻¹ s⁻¹
EC50 [8]: 0.00082 µM
Kd [9]: 0.501 µM and 0.516 µM and 0.535 µM and 0.53 µM
Kd [10]: 0.438 µM and 0.453 µM and 0.468 µM and 0.466 µM
EC50 [11]: 0.00013 µM
Max FOB [11]: 7 fold over background
Kd (human CD16a V158 [12]): 131 nM (2×) and 134 nM and 122 nM
Kd (cynomolgus CD16 [13]): 0.271 µM
koff (cynomolgus CD16 [13]): 0.021 s⁻¹
kon (cynomolgus CD16 [13]): 76000 M⁻¹ s⁻¹
Kd (human CD32a R131 [14]): 1.5 µM and 1.3 µM and 1.2 µM
Kd (human CD32a R131 [15]): 1.4 µM
Kd [16]: 0.493 µM
koff [17]: 0.11 s⁻¹
kon [17]: 240000 M⁻¹ s⁻¹ and 230000 M⁻¹ s⁻¹
EC50 [18]: 0.00083 µM
EC50 [19]: 0.0007 µM
Max FOB [19]: 146 fold over background
koff [20]: 0.11 s⁻¹
kon [20]: 220000 M⁻¹ s⁻¹
EC50 [21]: 0.00037 µM
Max FOB [21]: 16 fold over background
koff [22]: 0.11 s⁻¹
kon [22]: 190000 M⁻¹ s⁻¹
koff [23]: 0.11 s⁻¹
kon [23]: 200000 M⁻¹ s⁻¹
Kd [24]: 0.522 µM
B1: AB1424/AB1612 F3′ TriNKET (bispecific antibody, human IgG1, kappa)
chain: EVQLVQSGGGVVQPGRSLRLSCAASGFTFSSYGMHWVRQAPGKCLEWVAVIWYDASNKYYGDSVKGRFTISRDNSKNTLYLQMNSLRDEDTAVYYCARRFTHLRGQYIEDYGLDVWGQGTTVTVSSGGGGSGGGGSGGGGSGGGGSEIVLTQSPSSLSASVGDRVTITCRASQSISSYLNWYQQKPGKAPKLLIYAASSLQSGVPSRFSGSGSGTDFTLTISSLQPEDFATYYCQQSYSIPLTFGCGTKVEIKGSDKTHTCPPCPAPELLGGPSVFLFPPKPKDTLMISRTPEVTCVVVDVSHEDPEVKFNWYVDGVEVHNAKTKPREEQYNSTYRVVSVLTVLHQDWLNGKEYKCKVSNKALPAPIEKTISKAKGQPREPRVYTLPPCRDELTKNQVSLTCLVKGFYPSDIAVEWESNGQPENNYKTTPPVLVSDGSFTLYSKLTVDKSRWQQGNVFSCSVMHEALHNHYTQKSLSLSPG
heavy: EVQLVESGGGLVKPGGSLRLSCAASGFTFSSYSMNWVRQAPGKGLEWVSSISSSSSYIYYADSVKGRFTISRDNAKNSLYLQMNSLRAEDTAVYYCARGAPIGAAAGWFDPWGQGTLVTVSSASTKGPSVFPLAPSSKSTSGGTAALGCLVKDYFPEPVTVSWNSGALTSGVHTFPAVLQSSGLYSLSSVVTVPSSSLGTQTYICNVNHKPSNTKVDKKVEPKSCDKTHTCPPCPAPELLGGPSVFLFPPKPKDTLMISRTPEVTCVVVDVSHEDPEVKFNWYVDGVEVHNAKTKPREEQYNSTYRVVSVLTVLHQDWLNGKEYKCKVSNKALPAPIEKTISKAKGQPREPQVCTLPPSRDELTENQVSLTCLVKGFYPSDIAVEWESNGQPENNYKTTPPVLDSDGSFFLYSWLTVDKSRWQQGNVFSCSVMHEALHNHYTQKSLSLSPG
light: DIQMTQSPSSVSASVGDRVTITCRASQGISSWLAWYQQKPGKAPKLLIYAASSLQSGVPSRFSGSGSGTDFTLTISSLQPEDFATYYCQQGVSFPRTFGGGTKVEIKRTVAAPSVFIFPPSDEQLKSGTASVVCLLNNFYPREAKVQWKVDNALQSGNSQESVTEQDSKDSTYSLSSTLTLSKADYEKHKVYACEVTHQGLSSPVTKSFNRGEC
notes: Chain S: anti-BAFF-R scFv-CH2-CH3; chain H: anti-NKG2D VH-CH1-CH2-CH3; chain L: anti-NKG2D VL-CL; also called AB1612-002
